Reference: patent US20050084868A1 (published 2005)
Residue numbers refer to the chain shown, from its start.

B1: NA06.4 (scFv)
chain: QVKLQQSGAELVKSGGSVKLSCTASGFNIKDSYMHWVRQGPEQGLEWIGWIDPENGDTEYAPKFQGKATFTTDTSSNTAYLQLSSLTSEDTAVYYCNEGTPTGPYYFDYWGQGTTVTVSSGGGGSGGGGSGGGGSENVLTQSPAIVSASPGEKVTITCSASSSVSYMHWFQQKPGTSPKLVIYSTSNLASGVPARFSGSGSGTSYSLTISRMEAEDAATYYCQQRSSYPLTFGAGTKLELKRAATLVSEKQLAEVVANTITPLMKAQSVPGMAVAVIYQGKPHYYTFGKADIAANKPVTPQTLFELGSISKTFTGVLGGDAIARGEISLDDAVTRYWPQLTGKQWQGIRMLDLATYTAGGLPLQVPDEVTDNASLLRFYQNWQPQWKPGTTRLYANASIGLFGALAVKPSGMPYEQAMTTRVLKPLKLDHTWINVPKAEEAHYAWGYRDGKAVRVSPGMLDAQAYGVKTNVQDMANWVMANMAPENVADASLKQGIALAQSRYWRIGSMYQGLGWEMLNWPVEANTVVETSFGNVALAPLPVAEVNPPAPPVKASWVHKTGSTGGFGSYVAFIPEKQIGIVMLANTSYPNPARVEAAYHILEALQ
notes: Variant of the CAB1 scFv-BLA fusion built on NA05.6; Tested as crude lysate after thermolysin treatment; Positions are numbered along the whole CAB1 fusion (pME27)
B2: NA05.15 (scFv)
chain: B1 chain with K13R, G16T, V37L, F170Y, V181W, A194D
notes: Variant of the CAB1 scFv-BLA fusion, tested as crude lysate; Positions are numbered along the whole CAB1 fusion (pME27)
B3: NA05.6 (scFv)
chain: B1 chain with V37L, V146M
notes: Variant of the CAB1 scFv-BLA fusion (plasmid pME27.1), tested as crude E. coli lysate; also called pNA05.6; parent NA05.6
B4: NA06.2 (scFv)
chain: B1 chain with E42G, V146M, A194D
notes: as for B1
B5: NA06.12 (scFv)
chain: B1 chain with E136Q, V146M
notes: as for B1
B6: NA06.11 (scFv)
chain: B1 chain with K3Q, V146M, A194D
notes: as for B1
B7: NA05.8 (scFv)
chain: B1 chain with G16T, V37L, V146M, F170Y, V181W, A234G
notes: as for B2
B8: NA05.9 (scFv)
chain: B1 chain with K3Q, K13R, S14P, G16T, E42G, E136Q, A234G
notes: as for B2
B9: NA06.6 (scFv)
chain: B1 chain with K3Q
notes: as for B1
B10: NA05.12 (scFv)
chain: B1 chain with K3Q, K13R, S14P, G16T, V181W
notes: as for B2
B11: NA06.10 (scFv)
chain: B1 chain with A194D
notes: as for B1

What was measured:
carcinoembryonic antigen [1] = target: T1, carcinoembryonic antigen (UniProt P06731 35-685); test: CEA-coated plate assay on thermolysin-treated lysate, BLA/nitrocefin read-out
T1 construct: Bought reagent (Biodesign); also called CEA
T1 sequence: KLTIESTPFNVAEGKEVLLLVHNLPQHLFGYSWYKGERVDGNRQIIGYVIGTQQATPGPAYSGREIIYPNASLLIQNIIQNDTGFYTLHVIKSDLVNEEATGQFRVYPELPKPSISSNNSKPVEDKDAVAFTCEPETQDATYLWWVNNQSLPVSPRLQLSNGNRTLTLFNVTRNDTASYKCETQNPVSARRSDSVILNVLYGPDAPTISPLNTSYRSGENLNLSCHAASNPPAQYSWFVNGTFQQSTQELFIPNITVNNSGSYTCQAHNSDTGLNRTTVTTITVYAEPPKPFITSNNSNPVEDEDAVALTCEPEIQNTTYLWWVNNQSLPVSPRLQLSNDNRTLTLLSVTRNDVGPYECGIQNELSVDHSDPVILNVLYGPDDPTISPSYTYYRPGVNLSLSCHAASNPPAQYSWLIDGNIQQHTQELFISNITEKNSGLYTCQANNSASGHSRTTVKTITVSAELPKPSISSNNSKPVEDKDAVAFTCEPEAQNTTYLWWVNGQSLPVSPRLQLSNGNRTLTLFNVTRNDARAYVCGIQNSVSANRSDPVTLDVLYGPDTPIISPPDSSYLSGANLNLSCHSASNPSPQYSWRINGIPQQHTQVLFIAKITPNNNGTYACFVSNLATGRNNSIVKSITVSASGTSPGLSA

carcinoembryonic antigen [2] = target: T1, carcinoembryonic antigen; test: plate assay: CEA coated on wells, culture lysate added, bound fusion read by BLA activity on nitrocefin

Binder | binding result (carcinoembryonic antigen [1]) | binding result (carcinoembryonic antigen [2])
B1 | binds | 
B2 |  | binds
B3 |  | binds
B4 | binds | 
B5 | binds | 
B6 | binds | 
B7 |  | binds
B8 |  | binds
B9 | binds | 
B10 |  | binds
B11 | binds | 
